Consider 5 sequences from the Immune Epitope Database (IEDB).

One assay addresses HLA-A*02:16. The assay can be described thus: IEDB peptide-MHC binding, purified MHC/direct/fluorescence; filed as Kd, often an IC50 or EC50 that approximates it; ≥ and ≤ were set here for values at or beyond the usual limits of such assays. As to conditions: source organism: Bacillus cereus H3081.97.
Another assay has as its target HLA-B*15:01. Described as above.
The target of another assay is HLA-A*02:01. The assay is described as above.
In another assay the target is HLA-B*15:17. The assay is described as above.
Another assay addresses HLA-A*02:19. Described as above.
For the next assay, the target named is HLA-A*26:01. The description is as above.
A further assay concerns the target HLA-A*02:03. Described as above.
In a further assay the target is HLA-B*57:01. Described as above.
The target of another assay is HLA-B*39:01. Described as above.
For the next assay, the target named is HLA-A*29:02. Described as above. To be noted: source organism: Bacillus cereus H3081.97.
A further assay has as its target HLA-B*18:01. Described as above.
The target of the next assay is HLA-B*51:01. The assay is described as above.
The next assay addresses HLA-A*03:01. The assay is described as above.
A further assay deals with HLA-A*02:11. The assay is described as above.
For assay [1], the target named is HLA-B*46:01. The description is as above.
The target of another assay is HLA-A*02:12. Described as above.
A further assay deals with HLA-B*27:03. The description is as above.
A further assay has as its target HLA-A*02:06. The description is as above.
In the next assay the target is HLA-B*15:09. The description is as above. As to conditions: source organism: Influenza A virus (A/Taiwan/2/2006(H1N1)).
A further assay addresses HLA-B*27:05. The assay is described as above. As to conditions: source organism: Influenza A virus (A/camel/Mongolia/1982(H1N1)).
The target in the next assay is HLA-A*31:01. Described as above. As to conditions: source organism: Influenza A virus (A/camel/Mongolia/1982(H1N1)).
In another assay the target is HLA-B*07:02. The description is as above. To be noted: source organism: Influenza A virus (A/camel/Mongolia/1982(H1N1)).
A further assay deals with HLA-B*44:02. The description is as above. As to conditions: source organism: Influenza A virus (A/camel/Mongolia/1982(H1N1)).
In the next assay the target is HLA-B*40:01. The assay is described as above. To be noted: source organism: Influenza A virus (A/camel/Mongolia/1982(H1N1)).
Another assay deals with HLA-A*01:01. The assay is described as above. To be noted: source organism: Influenza A virus (A/camel/Mongolia/1982(H1N1)).
Another assay deals with HLA-A*24:02. Described as above. As to conditions: source organism: Influenza A virus (A/camel/Mongolia/1982(H1N1)).
The next assay deals with HLA-B*58:01. The assay is described as above. As to conditions: source organism: Influenza A virus (A/camel/Mongolia/1982(H1N1)).
A further assay concerns the target HLA-B*08:01. Described as above. As to conditions: source organism: Influenza A virus (A/camel/Mongolia/1982(H1N1)).
The next assay has as its target HLA-A*11:01. Described as above. To be noted: source organism: Influenza A virus (A/camel/Mongolia/1982(H1N1)).
The target of another assay is HLA-B*83:01. As to the kind of experiment: IEDB peptide-MHC binding, purified MHC/competitive/fluorescence; filed as Kd, often an IC50 or EC50 that approximates it; ≥ and ≤ were set here for values at or beyond the usual limits of such assays. To be noted: source organism: Clostridium novyi NT.
In another assay the target is HLA-C*06:02. The assay is described as above. As to conditions: source organism: Clostridium novyi NT.
The target in another assay is HLA-B*15:42. Described as above. To be noted: source organism: Clostridium novyi NT.
Another assay concerns the target HLA-B*27:20. The assay is described as above. As to conditions: source organism: Clostridium novyi NT.
The target in another assay is HLA-B*45:06. The description is as above. As to conditions: source organism: Clostridium novyi NT.
Another assay concerns the target HLA-A*32:15. The assay is described as above. As to conditions: source organism: Clostridium novyi NT.
The target of another assay is HLA-A*68:23. Described as above. To be noted: source organism: Clostridium novyi NT.
Assay [2] addresses HLA-B*46:01. The description is as above. As to conditions: source organism: Clostridium novyi NT.
Another assay addresses HLA-C*14:02. The description is as above. As to conditions: source organism: Clostridium novyi NT.
Another assay addresses HLA-A*32:07. Described as above. To be noted: source organism: Clostridium novyi NT.
Another assay concerns the target HLA-C*05:01. As to the kind of experiment: IEDB peptide-MHC binding, purified MHC/direct/fluorescence; filed as Kd, often an IC50 or EC50 that approximates it; ≥ and ≤ were set here for values at or beyond the usual limits of such assays. To be noted: source organism: Clostridium novyi NT.
Another assay deals with HLA-C*03:03. The description is as above. As to conditions: source organism: Clostridium novyi NT.
Another assay has as its target HLA-A*24:03. Described as above. To be noted: source organism: Yersinia enterocolitica subsp. enterocolitica 8081.
[3] abbreviates: source organism: Bacillus cereus H3081.97.
The mark [4] stands for this setting: source organism: Cryptosporidium parvum Iowa II.
Setting [5] is: source organism: Influenza A virus (A/camel/Mongolia/1982(H1N1)).
Where [6] appears, read: source organism: Influenza A virus (A/Taiwan/2/2006(H1N1)).
[7] abbreviates: source organism: Yersinia enterocolitica subsp. enterocolitica 8081.

YSTVRDLFL: the Kd in the assay with HLA-A*02:16 was at least 20 µM; with HLA-B*15:01 (setting [3]), at least 20 µM; with HLA-A*02:01 (setting [3]) it was at least 20 µM; in the assay with HLA-B*15:17 (setting [3]), at most 0.001 µM; in the assay with HLA-A*02:19 (setting [3]), at least 20 µM; in the assay with HLA-A*26:01 (setting [3]) it was at least 20 µM. In addition, the Kd in the assay with HLA-A*02:03 (setting [3]), with HLA-B*57:01 (setting [3]), with HLA-B*39:01 (setting [3]), with HLA-A*29:02, with HLA-B*18:01 (setting [3]) and in the assay with HLA-B*51:01 (setting [3]) was at least 20 µM in each case. Also, the Kd with HLA-A*03:01 (setting [3]), with HLA-A*02:11 (setting [3]), with HLA-B*46:01 [1] (setting [3]), with HLA-A*02:12 (setting [3]) and with HLA-B*27:03 (setting [3]) was at least 20 µM in each case.
For KQMSQPYAV, the Kd was 0.002 µM in the assay with HLA-A*02:01 (setting [4]); at least 20 µM with HLA-B*15:17 (setting [4]); at most 0.001 µM with HLA-A*02:06 (setting [4]); at least 20 µM with HLA-A*26:01 (setting [4]); at least 20 µM in the assay with HLA-B*57:01 (setting [4]); at least 20 µM in the assay with HLA-B*51:01 (setting [4]). In addition, the Kd with HLA-A*03:01 (setting [4]) was at least 20 µM; with HLA-B*46:01 [1] (setting [4]) it was at least 20 µM; with HLA-A*02:12 (setting [4]), at most 0.001 µM; with HLA-B*27:03 (setting [4]), at least 20 µM.
Regarding ELDEIGEDV, the Kd with HLA-B*15:01 (setting [5]) is at least 20 µM; in the assay with HLA-B*15:09, at least 20 µM; with HLA-B*27:05 it was at least 20 µM; with HLA-A*02:01 (source organism: Influenza A virus (A/Puerto Rico/8/34/Mount Sinai(H1N1))), 2.44 µM; with HLA-A*31:01, at least 20 µM; with HLA-A*02:06 (setting [6]), at least 20 µM. In addition, the Kd in the assay with HLA-B*07:02 is at least 20 µM; in the assay with HLA-A*02:03 (setting [6]), at least 5 µM; with HLA-B*44:02 it was at least 20 µM; with HLA-B*40:01, at least 20 µM; with HLA-A*01:01 it was at least 20 µM; with HLA-B*18:01 (setting [5]) it was at least 20 µM. For the same sequence, the Kd was at least 20 µM in the assay with HLA-A*03:01 (setting [5]); at least 20 µM with HLA-A*24:02; at least 20 µM in the assay with HLA-B*58:01; 0.134 µM with HLA-A*02:11 (setting [6]); at least 20 µM with HLA-B*08:01; at least 20 µM with HLA-B*46:01 [1] (setting [5]). For the same sequence, the Kd is 1.5 µM with HLA-A*02:12 (setting [6]) and at least 20 µM in the assay with HLA-A*11:01.
Turning to ASMDNTSPM, the Kd is 0.147 µM with HLA-B*83:01; 0.57 µM with HLA-C*06:02; at least 5 µM with HLA-B*15:42; 0.239 µM in the assay with HLA-B*27:20; at least 5 µM with HLA-B*45:06; 0.223 µM in the assay with HLA-A*32:15. The Kd with HLA-A*68:23 is 0.0297 µM; with HLA-B*46:01 [2], 0.0086 µM; with HLA-C*14:02 it was 0.0364 µM; with HLA-A*32:07, 0.0269 µM; with HLA-C*05:01 it was at least 20 µM; in the assay with HLA-C*03:03, at most 0.001 µM.
In the case of YIYDGKVNY, the Kd with HLA-B*15:17 (setting [7]) was 0.003 µM; in the assay with HLA-A*02:19 (setting [7]), at least 20 µM; with HLA-B*57:01 (setting [7]) it was at least 20 µM; in the assay with HLA-B*39:01 (setting [7]), at least 20 µM; with HLA-B*18:01 (setting [7]), at least 20 µM; in the assay with HLA-A*02:11 (setting [7]), at least 20 µM. The Kd in the assay with HLA-A*02:12 (setting [7]), with HLA-A*24:03 and with HLA-B*27:03 (setting [7]) was at least 20 µM in each case.

One may read the Kd as the concentration at which binding is half-saturated. Lower therefore signals tighter binding.
